# Measurements from US20170129962A1 (Hoffmann-La Roche, published 2017).
# T1: human Ang-2-RBD-Fc (human, UniProt O15123 275-496, limits assumed)
# T1 construct: domain: RBD; Analyte in solution; not shown: Fc part
# T1 sequence (looked up): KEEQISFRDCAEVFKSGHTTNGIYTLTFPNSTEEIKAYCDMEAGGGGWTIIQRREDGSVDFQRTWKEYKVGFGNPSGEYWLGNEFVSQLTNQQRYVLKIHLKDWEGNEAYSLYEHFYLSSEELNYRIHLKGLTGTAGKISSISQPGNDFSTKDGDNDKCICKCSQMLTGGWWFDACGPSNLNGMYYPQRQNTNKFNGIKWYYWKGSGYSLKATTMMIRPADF
# T2: human VEGFA-121 (VEGF-A-121-His) (human, UniProt P15692-9 27-147)
# T2 construct: Captured on the chip through an anti-His antibody; not shown: His tag
# T2 sequence (looked up): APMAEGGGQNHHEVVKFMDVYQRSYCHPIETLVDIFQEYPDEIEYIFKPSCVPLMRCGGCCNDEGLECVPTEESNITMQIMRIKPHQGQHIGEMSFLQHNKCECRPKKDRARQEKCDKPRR
# How the values were obtained:
# [1] = target: T1, human Ang-2-RBD-Fc; experiment: SPR (Biacore T200), bispecific antibody captured by anti-human F(ab')2, Ang2-RBD-Fc as analyte, 1:1 Langmuir
# Experimental: (§1) Binding of indicated antibodies to human Ang-2-RBD-Fc was investigated by surface plasmon resonance using a BIACORE® T200 instrument (GE Healthcare). Around 8000 (RU) of goat anti human F(ab′)₂ (10 μg/ml anti human F(ab)′₂; Order Code: 28958325; GE Healthcare Bio-Sciences AB, Sweden) were coupled on a Series S CMS chip (GE Healthcare BR-1005-30) at pH 5.0 by using an amine coupling kit supplied by the GE Healthcare. HBS-N (10 mM HEPES, 150 mM NaCl pH 7.4, GE Healthcare) was used as running buffer during the immobilization procedure. For the following kinetic characterization, sample and running buffer was PBS-T (10 mM phosphate buffered saline including 0.05% Tween20) at pH 7.4. The flow cell was set to 25° C.—and the sample block set to 12° C.—and primed with running buffer twice prior to kinetic characterization.
# (§2) The bispecific antibody was captured by injecting a 5 nM solution for 25 sec at a flow of 5 μl/min. The association was measured by injection of human Ang2-RBD-Fc in various concentrations in solution for 120 sec at a flow of 30 μl/min starting with 100 nM in 1:3 serial dilutions. The dissociation phase was monitored for up to 180 sec and triggered by switching from the sample solution to running buffer. The surface was regenerated by 60 sec washing with a Glycine pH 2.1 solution at a flow rate of 30 μl/min. Bulk refractive index differences were corrected by subtracting the response obtained from a goat anti human F(ab′)₂ surface. Blank injections are also subtracted (=double referencing). For calculation of apparent KD the Langmuir 1:1 model was used.
# (§3) Binding of the multispecific antibodies to their respective target antigens, i.e. ANG2 and VEGF, was assessed by Biacore® as described in the general methods section.
# [2] = target: T2, human VEGFA-121 (VEGF-A-121-His); experiment: SPR (Biacore T200), VEGF-A-121-His captured by anti-His antibody, bispecific antibody as analyte, 1:1 Langmuir
# Experimental: Around 10000 (RU) of anti His antibody (1 μg/ml anti His antibody; Order Code: 28995056; GE Healthcare Bio-Sciences AB, Sweden) were coupled on a Series S CM5 chip (GE Healthcare BR-1005-30) at pH 5.0 by using an amine coupling kit supplied by the GE Healthcare. HBS-N (10 mM HEPES, 150 mM NaCl pH 7.4, GE Healthcare) was used as running buffer during the immobilization procedure. For the following kinetic characterization, sample and running buffer was PBS-T (10 mM phosphate buffered saline including 0.05% Tween20) at pH 7.4. The flow cell was set to 25° C.—and the sample block set to 12° C.—and primed with running buffer twice prior to kinetic characterization.
# as §3
# [3] = target: T1, human Ang-2-RBD-Fc; experiment: SPR (Biacore T200), bispecific antibody captured by anti-human F(ab')2, Ang2-RBD-Fc as analyte, 1:1 Langmuir, apparent KD
# Experimental: as §1, §2
Binder,koff [1] [s⁻¹],kon [1] [M⁻¹ s⁻¹],Kd [2] [nM],koff [2] [s⁻¹],kon [2] [M⁻¹ s⁻¹],Kd [3] [nM]
"Ang2VEGF-0464 (bispecific antibody, human IgG1, kappa, CrossMAb CH1-CL, knob-into-hole with S354C/Y349C; also called Ang2VEGF-0464-0002) light 1: QPGLTQPPSVSVAPGQTARITCGGNNIGSKSVHWYQEKPGQAPVLVVYDDSDRPSGIPERFSGSNSGNTATLTISRVEAGDEADYYCQVWDSSSDHYVFGTGTKVTVLRTVAAPSVFIFPPSDKKLKSGTASVVCLLNNFYPREAKVQWKVDNALQSGNSQESVTEQDSKDSTYSLSSTLTLSKADYEKHKVYACEVTHQGLSSPVTKSFNRGEC heavy 1: not shown light 2: DIQMTQSPSSLSASVGDRVTITCSASQDISNYLNWYQKKPGKAPKVLIYFTSSLHSGVPSRFSGSGSGTDFTLTISSLQPEDFATYYCQQYSTVPWTFGQGTKVEIKSSASTKGPSVFPLAPSSKSTSGGTAALGCLVKDYFPEPVTVSWNSGALTSGVHTFPAVLQSSGLYSLSSVVTVPSSSLGTQTYICNVNHKPSNTKVDKKVEPKSC heavy 2: not shown",0.0172,8.81e+06,5,7.54e-05,16600,2
"Ang2VEGF-0477 (bispecific antibody, human IgG1, kappa, CrossMAb CH1-CL, knob-into-hole with S354C/Y349C) light 1: QPGLTQPPSVSVAPGQTARITCGGNNIGSKSVHWYQQKPGQAPVLVVYDDSDRPSGIPERFSGSNSGNTATLTISRVEAGDEADYYCQVWDSSSDHYVFGTGTKVTVLRTVAAPSVFIFPPSDEKLKSGTASVVCLLNNFYPREAKVQWKVDNALQSGNSQESVTEQDSKDSTYSLSSTLTLSKADYEKHKVYACEVTHQGLSSPVTKSFNRGEC heavy 1: not shown light 2: DIQMTQSPSSLSASVGDRVTITCSASQDISNYLNWYQQKPGKAPKVLIYFTSSLHSGVPSRFSGSGSGTDFTLTISSLQPEDFATYYCQQYSTVPWTFGQGTKVEIKSSASTKGPSVFPLAPSSKSTSGGTAALGCLVKDYFPEPVTVSWNSGALTSGVHTFPAVLQSSGLYSLSSVVTVPSSSLGTQTYICNVNHKPSNTKVDKKVEPKSC heavy 2: not shown",0.00823,2.19e+06,3,6.1e-05,19500,4
"Ang2VEGF-0466 (bispecific antibody, human IgG1, kappa, CrossMAb CH1-CL, knob-into-hole with S354C/Y349C; also called Ang2VEGF-0466-0002) light 1: QPGLTQPPSVSVAPGQTARITCGGNNIGSKSVHWYQKKPGQAPVLVVYDDSDRPSGIPERFSGSNSGNTATLTISRVEAGDEADYYCQVWDSSSDHYVFGTGTKVTVLRTVAAPSVFIFPPSDKKLKSGTASVVCLLNNFYPREAKVQWKVDNALQSGNSQESVTEQDSKDSTYSLSSTLTLSKADYEKHKVYACEVTHQGLSSPVTKSFNRGEC heavy 1: not shown light 2: DIQMTQSPSSLSASVGDRVTITCSASQDISNYLNWYQKKPGKAPKVLIYFTSSLHSGVPSRFSGSGSGTDFTLTISSLQPEDFATYYCQQYSTVPWTFGQGTKVEIKSSASTKGPSVFPLAPSSKSTSGGTAALGCLVKDYFPEPVTVSWNSGALTSGVHTFPAVLQSSGLYSLSSVVTVPSSSLGTQTYICNVNHKPSNTKVDKKVEPKSC heavy 2: not shown",0.031,1.06e+07,4,8.01e-05,18600,3
"Ang2VEGF-0474 (bispecific antibody, human IgG1, kappa, CrossMAb CH1-CL, knob-into-hole with S354C/Y349C) light 1: QPGLTQPPSVSVAPGQTARITCGGNNIGSKSVHWYQQKPGQAPVLVVYDDSDRPSGIPERFSGSNSGNTATLTISRVEAGDEADYYCQVWDSSSDHYVFGTGTKVTVLRTVAAPSVFIFPPSDEKLKSGTASVVCLLNNFYPREAKVQWKVDNALQSGNSQESVTEQDSKDSTYSLSSTLTLSKADYEKHKVYACEVTHQGLSSPVTKSFNRGEC heavy 1: not shown light 2: DIQMTQSPSSLSASVGDRVTITCSASQDISNYLNWYQQKPGKAPKVLIYFTSSLHSGVPSRFSGSGSGTDFTLTISSLQPEDFATYYCQQYSTVPWTFGQGTKVEIKSSASTKGPSVFPLAPSSKSTSGGTAALGCLVKDYFPEPVTVSWNSGALTSGVHTFPAVLQSSGLYSLSSVVTVPSSSLGTQTYICNVNHKPSNTKVDKKVEPKSC heavy 2: not shown",0.0097,2.04e+06,3,5.41e-05,21300,5
"Ang2VEGF-0465 (bispecific antibody, human IgG1, kappa, CrossMAb CH1-CL, knob-into-hole with S354C/Y349C; also called Ang2VEGF-0465-0002) light 1: QPGLTQPPSVSVAPGQTARITCGGNNIGSKSVHWYQKKPGQAPVLVVYDDSDRPSGIPERFSGSNSGNTATLTISRVEAGDEADYYCQVWDSSSDHYVFGTGTKVTVLRTVAAPSVFIFPPSDKKLKSGTASVVCLLNNFYPREAKVQWKVDNALQSGNSQESVTEQDSKDSTYSLSSTLTLSKADYEKHKVYACEVTHQGLSSPVTKSFNRGEC heavy 1: not shown light 2: DIQMTQSPSSLSASVGDRVTITCSASQDISNYLNWYQKKPGKAPKVLIYFTSSLHSGVPSRFSGSGSGTDFTLTISSLQPEDFATYYCQQYSTVPWTFGQGTKVEIKSSASTKGPSVFPLAPSSKSTSGGTAALGCLVKDYFPEPVTVSWNSGALTSGVHTFPAVLQSSGLYSLSSVVTVPSSSLGTQTYICNVNHKPSNTKVDKKVEPKSC heavy 2: not shown",0.0325,1.17e+07,5,7.96e-05,16000,3
"Ang2VEGF-0475 (bispecific antibody, human IgG1, kappa, CrossMAb CH1-CL, knob-into-hole with S354C/Y349C) light 1: QPGLTQPPSVSVAPGQTARITCGGNNIGSKSVHWYQQKPGQAPVLVVYDDSDRPSGIPERFSGSNSGNTATLTISRVEAGDEADYYCQVWDSSSDHYVFGTGTKVTVLRTVAAPSVFIFPPSDEELKSGTASVVCLLNNFYPREAKVQWKVDNALQSGNSQESVTEQDSKDSTYSLSSTLTLSKADYEKHKVYACEVTHQGLSSPVTKSFNRGEC heavy 1: not shown light 2: DIQMTQSPSSLSASVGDRVTITCSASQDISNYLNWYQQKPGKAPKVLIYFTSSLHSGVPSRFSGSGSGTDFTLTISSLQPEDFATYYCQQYSTVPWTFGQGTKVEIKSSASTKGPSVFPLAPSSKSTSGGTAALGCLVKDYFPEPVTVSWNSGALTSGVHTFPAVLQSSGLYSLSSVVTVPSSSLGTQTYICNVNHKPSNTKVDKKVEPKSC heavy 2: not shown",0.00505,1.38e+06,7,7.26e-05,10500,4
"Ang2VEGF-0476 (bispecific antibody, human IgG1, kappa, CrossMAb CH1-CL, knob-into-hole with S354C/Y349C) light 1: QPGLTQPPSVSVAPGQTARITCGGNNIGSKSVHWYQQKPGQAPVLVVYDDSDRPSGIPERFSGSNSGNTATLTISRVEAGDEADYYCQVWDSSSDHYVFGTGTKVTVLRTVAAPSVFIFPPSDEELKSGTASVVCLLNNFYPREAKVQWKVDNALQSGNSQESVTEQDSKDSTYSLSSTLTLSKADYEKHKVYACEVTHQGLSSPVTKSFNRGEC heavy 1: not shown light 2: DIQMTQSPSSLSASVGDRVTITCSASQDISNYLNWYQQKPGKAPKVLIYFTSSLHSGVPSRFSGSGSGTDFTLTISSLQPEDFATYYCQQYSTVPWTFGQGTKVEIKSSASTKGPSVFPLAPSSKSTSGGTAALGCLVKDYFPEPVTVSWNSGALTSGVHTFPAVLQSSGLYSLSSVVTVPSSSLGTQTYICNVNHKPSNTKVDEKVEPKSC heavy 2: not shown",0.0114,1.32e+06,4,6.94e-05,18500,9
